# Data taken from the nanobody polyreactivity screen of Harvey et al. (2022).
# Test: yeast display, Sf9 membrane polyspecificity reagent, FACS + sequencing; frameworks hold sequencing errors
# Outline: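 In a synthetic yeast display library (Saccharomyces cerevisiae BJ5465), nanobody expression was induced with galactose for 36–48 hours. FACS gates were set low and high (top ~1%) using anti-HA fluorescence for expression and streptavidin fluorescence for binding of the Sf9 membrane reagent. Each polyreactivity label is drawn from the gate of origin.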
row,Sequence,polyreactivity (PSR sort gate)
1,QVQLVESGGGLVQAGGSLRLSCAASGSIFRRYAMGWYRQAPGKERELVAAISSNGGSTYYADSVKGRFTISRDNAKNTVYLQMNSLKPEDTAVYYCNAPPLYRDEYWGQGTQVTVSS,high polyreactivity
2,QVQLVESGGGLVQAGGSLRLSCAASGSIFRSNAMGWYRQAAGKERELVAAIDYSGTSTTYADSVKGRFTISRDNAKNTVYLQMNSLKPEDTAVYYCNADGYYRGYWSGYEYWGQGTQVTVSS,low polyreactivity
3,QVQLVESGGGLVQAGGSLRLSCAASGSIFRSNAMGWYRQAPGKEREFVAAITSRSSSTYYADSVKGRFTISRDNAKNTVYLQMNSLKPEDTAVYYCAARYQHYFTGGDYWGQGTQVTVSS,low polyreactivity
4,QVQLVESGGGLVQAGGSLRLSCAASGSIFRSNAMGWYRQAPGKERELVAAITQSGDTTNYADSVKGRFTISRDNAKNTVYLQMNSLKPEDTAVYYCNADTDRYWPYEYDYWGQGTQVTVSS,low polyreactivity
5,QVQLVESGGGLVQAGGSLRLSCAASGSIFRSNDMGWYRQAPGKERELVARITSSVGSTYYADSVKGRFTISRDNAKNTVYLQMNSLKAEDTAVYYGAKRYYHYPYGYRDYDYWGQGTQVTVSS,low polyreactivity
6,QVQLVESGGGLVQAGGSLRLSCAASGSIFRSNTMGWYRQAPGKERELVAGISYSGGSTYADSVKGRFTISRDNAKNTVYLQMNSLKTEDTAVYYCARRVYSYVVLYFSYYYWGQGTQVTVSS,low polyreactivity
7,QVQLVESGGGLVQAGGSLRLSCAASGSIFRSYAKGWYRQAPGKERELVAAISSSGGRKYYADSVKGRFTISRDNAKNTVYLQMNSLKPEDTAVYYCAAYGAGGYKYDYWGQGTQVTVSS,low polyreactivity
8,QVQLVESGGGLVQAGGSLRLSCAASGSIFRSYALGWYRQAPGKERELVAAITWSGGRTYYADSVKGRFTISRDNAKNTVYLQMNSLKPEDTAVYYCNADVWWDTWFLDGYDYWGQGTQVTVSS,high polyreactivity
9,QVQLVESGGGLVQAGGSLRLSCAASGSIFRSYAMGWYRPAPGKERELVAAISSGGRTKYADSVKGRFTISRDNAKNTVYLQMNSLKPEDTAVYYCAARAYYARFLMGYWGQGTQVTVSS,high polyreactivity
10,QVQLVESGGGLVQAGGSLRLSCAASGSIFRSYAMGWYRQAPGKERELVAAISGRGSNTYYADSVKGRFTISRDNAKNTVYLQMNSLKPEDTAVYYCATRQWVFSHGYWGQGTQVTVSS,high polyreactivity
11,QVQLVESGGGLVQAGGSLRLSCAASGSIFRSYAMGWYRQAPGKERELVAAISRRGGSTYYADSVKGRFTISRDNAKNTVYLQMNSLKPADTAVYYCAADRTGPYDYWGQGTQVTVSS,high polyreactivity
12,QVQLVESGGGLVQAGGSLRLSCAASGSIFRTNAMGWYREAPGKERELVAAITGRGGSTYYADSVKGRFTISRDYAKNTVYLQMNSLKPEDTAVYYCAAAYGTWKFLATTEDYWGQGTQVTVSS,high polyreactivity
13,QVQLVESGGGLVQAGGSLRLSCAASGSIFRTNAMGWYRQAPGKERELVAAISRRGSNTYYADSVKGRFTISRDNAKNTVYLLMNSMKPEDTAVYYCAADVSGSKYDYWGQGTQVTVSS,high polyreactivity
14,QVQLVESGGGLVQAGGSLRLSCAASGSIFRTYTMGWYRQAPGKERELVAAITRSGGRTFYADSVKGRFTISRDTAKNTVYLQMHSLKPEDTAVYYCAAKRTGDYDWGQGTQVTVSS,high polyreactivity
15,QVQLVESGGGLVQAGGSLRLSCAASGSIFRVNTLGWYRQAPGKERELVATISSGARTNYADSVKGRFTISRDNAKNTVDLQLNSLKPEDTAVYYCAADRSWGYWGRSRYDYWGQGTQVTVSS,high polyreactivity
16,QVQLVESGGGLVQAGGSLRLSCAASGSIFRVNTMGWYRQAPGKERELVAGITSRGGSTYYADSVKGRFTISRDNAKNTVYLQMNSLKPEDTAFYYCANRAYGTALYRGYGYWGQGTQVPVSS,low polyreactivity
17,QVQLVESGGGLVQAGGSLRLSCAASGSIFRVYALGWSRQAPGKERELVAAISSSGGSTYYADSVKGRFTISRDNAKNTVYLQMNSLKPEDTAVYYCAAEYDGPYTWVDYYYHYGYWGQGTQVTVSS,low polyreactivity
18,QVQLVESGGGLVQAGGSLRLSCAASGSIFRVYAMGRYRQAPGKEREFVAAISYSTGSTYADSVKGRFTISRDNAKNTVYLQMNSLKPEDTAVYYCNARLRYGSRDEYDYWGQGTQVTVSS,low polyreactivity
19,QVQLVESGGGLVQAGGSLRLSCAASGSIFRVYAMGWYRQAPGKEREFVAAITRRGTRTYYADSVKGRFTISRDNAKNTDYLQMNSLKPEDTAVYYCAAYFTDGLYEYWGQGTQVTVSS,low polyreactivity
20,QVQLVESGGGLVQAGGSLRLSCAASGSIFRVYAMGWYRQAPGKEREFVAAITRRGTRTYYADSVKGRFTISRDNAKNTVYLQMNSLKPEDTAVYYCAAYFTEGLYEYWGQGTQVTLSS,low polyreactivity
21,QVQLVESGGGLVQAGGSLRLSCAASGSIFRVYAMGWYRQAPGKERELVAVITWTGGITYYADSVKGRFTISRDNAKNTVYLQMNSLKPEDTAVYYCNADLLTFAIKAPTGFYYWGQGTQVTVSS,high polyreactivity
22,QVQLVESGGGLVQAGGSLRLSCAASGSIFRVYGMGWHRQAPGKERELVAAITWSGGSTYYADSVKGRFTISRDNAKNTVYLQMNSLKPEDTAVSYCAARARPRYYRPPYDYWGQGTQVTVSS,high polyreactivity

row,Sequence,polyreactivity (PSR sort gate)
1,QVQLVESGGGLVQAGGSLRLSCAASGSIFRYNAMGWYRQAPGKERELVAAISGRGTSTYYADSVKGRFTISRDNAKNTVYLQMNSLKPEDTAVYYCAAVYFRTFLVEYYYWGQGTQVTVSS,high polyreactivity
2,QVQLVESGGGLVQAGGSLRLSCAASGSIFRYNAMGWYRQAPGKERELVAAITSGDSTYYADSVKGRFTISRDNAKNTVYLQMNSLKPEDTAVYYCAADLRYIYWSYYYWGQGTQVTVSS,low polyreactivity
3,QVQLVESGGGLVQAGGSLRLSCAASGSIFRYNTMGWYRPAPGKERELVATITRRGGSTYYADSVKGRFTISRDNAKNTVYLQMNSLKPEDTAVYYCIADNFGGPYNYWGQGTQVTVSS,low polyreactivity
4,QVQLVESGGGLVQAGGSLRLSCAASGSIFRYYAMGAYRQAPGKARELVAAISIRGGRTYYADSVKGRFTISRDNAKNTVYLQMNSLKPEDTAVYYCATAFGFTAKYYYWGQGTQVTVSS,high polyreactivity
5,QVQLVESGGGLVQAGGSLRLSCAASGSIFRYYAMGLYRQAPGKERVLVAAFSGSGGITLYADSVKVRFSISRDNAKNTVYLQMNCLKPEDTAVYFCATRPGTRPAYDYWGQGTQVTVSS,high polyreactivity
6,QVQLVESGGGLVQAGGSLRLSCAASGSIFRYYAMGWYRPAPGKERELVAAISSGGNTKYADSVKGRFTISRDNAKNTVYLQMNSLKPADTAVYYCNAAGKACGDYDYWGQGTQVTVSS,low polyreactivity
7,QVQLVESGGGLVQAGGSLRLSCAASGSIFRYYAMGWYRQAPGKERELVAAISSGDSTNYADSVKGRFTISRDNAKNTVYLQMNSLKPEDTAVYYCAAGVVRGPGYYRKYYYWGQGTQVTVSS,high polyreactivity
8,QVQLVESGGGLVQAGGSLRLSCAASGSIFRYYAMGWYRQAPGKERELVAAITRRGGSTYYADSVKGRFTISRDNAKNTVYLQMNSLKPEDTAVYYCAASHGYQYEYWGQGTQVTVSS,high polyreactivity
9,QVQLVESGGGLVQAGGSLRLSCAASGSIFRYYAMGWYRQAPGKERELVAAITSGGSTSYADSVKGRFTISRDNAKNTVYLQMNSLKPEDTAVYYCAKRSRHNKYYYWGQGTQVTVSS,high polyreactivity
10,QVQLVESGGGLVQAGGSLRLSCAASGSIFRYYDMGWYRQAPGKERELVAAISDSTGTTYYADSVKGRFTISRDNAKNTVYLQMNSLKPEDTAVYYCTAGYDPRYDYWGQGTQVTVSS,high polyreactivity
11,QVQLVESGGGLVQAGGSLRLSCAASGSIFRYYVMGWYRHAPGKERELVAAISGGSTYYADSVKGRFTISRDNAKNTVYLQMNSLKPEDTAVYYCAARGKRRSGGENYAYGYWGQGTQVTVSS,high polyreactivity
12,QVQLVESGGGLVQAGGSLRLSCAASGSIFRYYVMGWYRQAPGKERELVAAISWSGGTTYYADSVKGRFTISRDNAKNTVYLQMNSLKPEDTAVYYCAAKGPLGYYHATDYHDYWGQGTQVTVSS,high polyreactivity
13,QVQLVESGGGLVQAGGSLRLSCAASGSIFSAKTMGWYRQAPGKERELVAAISSSGGRTYYADSVKGRFTISRDHAKNTVYLQMNSLKPEDTAVYYSNARSRYHVTPYSGVTGYDYWGQGTQVTVSS,high polyreactivity
14,QVQLVESGGGLVQAGGSLRLSCAASGSIFSANAMGWYRQAPGKERELVASITGDGSTNYADSVNGRFTISRDNAKNTVYLQMNSLKPEDTAVYYCAVDRGRRGMDYWGQGTQVTVSS,low polyreactivity
15,QVQLVESGGGLVQAGGSLRLSCAASGSIFSAYSMGSYRQAHGKEREFVAAISKSGSSTYYADSVKGRFTISRDNAKNTVYLQMNSLKPEDTAVYYCAAESSSYYGYYIYYYWGQGTQVTVSS,high polyreactivity
16,QVQLVESGGGLVQAGGSLRLSCAASGSIFSDYAKGWYRQAPVKERELVAVITSGGRTNYADSLKGRFTISRDNAKNTVYLQMNSLKPEDTAVFYWNAYVHSRRVEFNYWGQGTQVTVSS,high polyreactivity
17,QVQLVESGGGLVQAGGSLRLSCAASGSIFSDYAMGWYRQAPGTERELVAAITEGGDSTYYADSVKGRFTISRDNAKNTVYLQMNSLKPEDTAVYSCAAEVYQLFTSPFDYWGQGTQVTVSS,low polyreactivity
18,QVQLVESGGGLVQAGGSLRLSCAASGSIFSENAMGWYRQAPGKERELVADITDGGGSTYYADSVKGRFTISRDNAKNTVYLQMNSLKPEDTAVYYCNAQIFFFAPWYYEYDYWGQGTQVTVSS,low polyreactivity
19,QVQLVESGGGLVQAGGSLRLSCAASGSIFSENTMGWYRQAPGKKRELVADITSGGSTNYADSVKGRFTISRDNAKNTVYLQMNSLKPEDTAVYYCNADWEAYKYNYWGQGTQVTVSS,low polyreactivity
20,QVQLVESGGGLVQAGGSLRLSCAASGSIFSFNAMGWYRPAPGKERELVAAISKSGGRTYYADSVKGRFTISRDNAKNTVYLQMNSLKPEDTAVYYCNVVSYYLYTPGDYWGQGTQVTVSS,high polyreactivity
21,QVQLVESGGGLVQAGGSLRLSCAASGSIFSFNAMGWYRQAPGKERELVAVITRNGGSTYYADSVKGRFTISRDNAKNTVYLQKNSLKPEDTAVYYCAKRLYRHIMGYWGQGTQVTVSS,high polyreactivity
